Drawing on publication PMC2386467, this text covers binding for four sequences.

Chain of Rap2.6 (Arabidopsis thaliana) (Q7G1L2 whole entry): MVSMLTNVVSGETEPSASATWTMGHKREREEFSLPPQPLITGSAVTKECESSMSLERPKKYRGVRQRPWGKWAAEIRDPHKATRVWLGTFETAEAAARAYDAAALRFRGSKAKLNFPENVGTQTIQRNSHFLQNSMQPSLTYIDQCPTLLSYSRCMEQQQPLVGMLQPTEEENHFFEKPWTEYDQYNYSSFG

This series addresses Rap2.6 (Arabidopsis thaliana) (UniProt Q7G1L2). In words: EMSA. As to conditions: EMSA: 2.5 ug protein, 20 ng DNA, 0.5x TBE, 20 min room temperature, 6-7% native PAGE, anti-His blot; affinity assay: 2 ug protein, 100 pmol F5, 0.5x TBE, 10 min.
For “AAACCATGGCATGCATAAGAGTCTTGAGCATAATAATGAAACCTGGATTTCCCGGA (double strand) [F1]”, the binding result is “no binding”.

In the case of “AAACCATGGCATGCATAAGAGTCTTGAGCATAATAATGAAACCTGGATTTCCCGGAATAAACAATACATGGAATGTGGGATTCTCAGCTTGAATTTCCATCATCTCCGTCATC (double strand) [F2]”, the binding result is given as “no binding”.

Take “CTCCGGTCACGCGATTCAACTTATATCTTCTCTCAGAACTGTCAACACTTGAAAGGAGAAGATCGAGAGAATTAATGAGACAACAGAGAAACCACTAAAAATCAAAACTTTGCAAAATAAGTGAAGAAGCCTTTTAAAGTAAACCAAGTGAAGAGAG (double strand) [F5]”: the binding entry is “no binding”.

Take “TCTCCGTCATCGAACTTTGATCACAAATACAAAAAACAAAACAAAAAGTGTAACTATAGTCAAAGAAATTAGAAAATTTCGTAAAAGATTAATGTAACAATACCCAGAAACTCTGC (double strand) [F3]”: the binding result is listed as “no binding”.
